From PMC5762634, “Domain swapping and SMYD1 interactions with the PWWP domain of human hepatoma-derived growth factor”

Molecular target: HDGF PWWP domain (human, UniProt P51858 1-100)
Assay: size-exclusion chromatography; 5 mM EDTA; SEC: 20 mM Tris-HCl pH 7.5, 5 mM EDTA, 5 mM beta-ME, no added salt; protein:DNA 1:1, incubated overnight at 4 C
Details: protein: recombinant; tags: His tag (pET28a, NdeI/EcoRI, Ni-NTA); chain copies: 2; blunt

HDGF PWWP domain, sequence (P51858 1-100): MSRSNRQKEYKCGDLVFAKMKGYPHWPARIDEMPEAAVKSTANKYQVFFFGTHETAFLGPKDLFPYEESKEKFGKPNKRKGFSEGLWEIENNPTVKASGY

Binder | binding result
5-bp SMYD1 (dsDNA) DNA 1: CAGGC DNA 2: GCCTG | binds
15-bp SMYD1 (dsDNA) DNA 1: CAGGCTGGTCTTGAA DNA 2: TTCAAGACCAGCCTG | binds
